Measured values as given in the supplement of paper PMC7877785.
± gives the uncertainty stated by the source.

Experiment: self-splicing fitness, log relative to wild type (ln ratio); higher = more splicing; Tetrahymena group I intron in knt gene, E. coli kanamycin selection, DiMSum; sequences stand for … in CUCUCU…GGAGGGAAAAGUUAUCAGGCAUGCACCUGGUAGCUAGUCUUUAAACCAAUAGAUUGCAUCGGUUUAAAAGGCAAGACCGUCAAAUUGCGGGAAAGGGGUCAACAGCCGUUCAGUACCAAGUCUCAGGGGAAACUUUGAGAUGGCCUUGCAAAGGGUAUGGUAAUAAGCUGACGGACAUGGUCCUAACCACGCAGCCAAGUCCUAAGUCAACAGAUCUUCUGUUGAUAUGGAUGCAGUUCACAGACUAAAUGUCGGUCGGGGAAGAUGUAUUCUUCUCAUAAGAUAUAGUCGGACCUCUCCUUAAUGGGAGCUAGCGGAUGAAGUGAUGCAACACUGGAGCCGCUGGGAACUAAUUUGUAUGCGAAAGUAUAUUGAUUAGUUUUGGAGUACUCGUGGUCG
How it was run: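 Fitness was computed with DiMSum as the error-weighted combination of replicate fold changes, kanamycin versus none, each normalised to wild type. The library randomised all eight intron nucleotides of the P1ex region, with the intron placed in the knt kanamycin-resistance gene on pET-22b(+) in E. coli BL21(DE3). Six replicate transformations were grown overnight at 37°C or 30°C on LB agar with or without 25 μg/mL kanamycin, plus 100 μg/mL carbenicillin, 50 μM IPTG and 0.2% rhamnose. Pooled colonies were amplicon-sequenced on an Illumina HiSeq 2500.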

Sequence	self-splicing fitness (ln) (37 °C)	self-splicing fitness (ln) (30 °C)
UCCGAGCAAUAUUACGAGCU	-2.68 ± 0.48	–
GGUUAGCAAUAUUACGCGAU	-3.48 ± 0.46	-2.48 ± 0.23
UUAAAGCAAUAUUACGUUAU	-1.23 ± 0.11	-2.14 ± 0.092
CGCAAGCAAUAUUACGUUGU	-2.41 ± 0.12	-3.69 ± 0.11
UUCCAGCAAUAUUACGGCGG	-2.72 ± 0.27	-3.09 ± 0.17
AACUAGCAAUAUUACGGCGA	-0.155 ± 0.13	-0.842 ± 0.1
CAUAAGCAAUAUUACGCGGC	-2.53 ± 0.23	-3.43 ± 0.28
CGCCAGCAAUAUUACGGAAC	-1.52 ± 0.24	-2.64 ± 0.23
CGAUAGCAAUAUUACGCCAC	-0.944 ± 0.43	-2.44 ± 0.44
AAGCAGCAAUAUUACGGAUU	-0.000157 ± 0.077	-0.723 ± 0.055
UCUGAGCAAUAUUACGUCAC	-2.32 ± 0.45	–
CAACAGCAAUAUUACGCCUG	-0.914 ± 0.11	-1.23 ± 0.088
GUCCAGCAAUAUUACGUGCU	0.0205 ± 0.18	-4.08 ± 0.46
CUUGAGCAAUAUUACGCCCU	-2.21 ± 0.46	–
GAGUAGCAAUAUUACGUUUU	-2.12 ± 0.24	-2.6 ± 0.22
GUUUAGCAAUAUUACGCGAU	-2.42 ± 0.42	-3.12 ± 0.4
UAGAAGCAAUAUUACGCUCG	-0.333 ± 0.12	-1.06 ± 0.13
CGGGAGCAAUAUUACGGCCG	–	-3.09 ± 0.31
UCUCAGCAAUAUUACGAUGC	-2.55 ± 0.27	-3.28 ± 0.28
AACUAGCAAUAUUACGGGGA	-0.982 ± 0.13	-1.3 ± 0.12

Sequence	self-splicing fitness (ln) (37 °C)	self-splicing fitness (ln) (30 °C)
UAACAGCAAUAUUACGUUGC	-2.84 ± 0.25	–
GAGCAGCAAUAUUACGUUCG	-0.474 ± 0.098	-1.51 ± 0.097
UUUUAGCAAUAUUACGGUUA	0.105 ± 0.13	-1.54 ± 0.2
CCUUAGCAAUAUUACGCUUU	-2.46 ± 0.22	-3.64 ± 0.31
UUGAAGCAAUAUUACGUCGA	0.333 ± 0.093	0.473 ± 0.084
GAGGAGCAAUAUUACGGAGA	-2.25 ± 0.27	-2.95 ± 0.2
ACCCAGCAAUAUUACGUUAC	-1.13 ± 0.14	-3.24 ± 0.14
UCGUAGCAAUAUUACGUACU	-1.27 ± 0.17	-2.04 ± 0.23
ACAUAGCAAUAUUACGAAGA	-2.72 ± 0.16	-3.19 ± 0.18
AGUAAGCAAUAUUACGUCGU	-0.496 ± 0.12	-2.12 ± 0.13
AUUGAGCAAUAUUACGGAUC	-2.65 ± 0.38	-4.03 ± 0.47
GUGAAGCAAUAUUACGCAAU	-0.623 ± 0.12	-0.705 ± 0.088
CGAAAGCAAUAUUACGAGCC	-1.19 ± 0.3	-2.18 ± 0.32
CUUGAGCAAUAUUACGGACG	0.256 ± 0.26	-0.339 ± 0.15
UUUUAGCAAUAUUACGAAUU	-1.23 ± 0.29	-3.26 ± 0.38
UUAGAGCAAUAUUACGCACU	-1.78 ± 0.44	-1.24 ± 0.23
CGACAGCAAUAUUACGCCUU	-1.61 ± 0.23	-2.4 ± 0.22
CCGAAGCAAUAUUACGCAGG	–	-2.04 ± 0.12
AAUCAGCAAUAUUACGACAG	-0.761 ± 0.1	-1.31 ± 0.083
GCACAGCAAUAUUACGUGGG	-1.47 ± 0.067	-1.53 ± 0.059
